IntAct's records for PubMed 19561611

B1: Hedgehog-interacting protein (Homo sapiens), Q96QV1-1 (parent)
chain: MLKMLSFKLLLLAVALGFFEGDAKFGERNEGSGARRRRCLNGNPPKRLKRRDRRMMSQLELLSGGEMLCGGFYPRLSCCLRSDSPGLGRLENKIFSVTNNTECGKLLEEIKCALCSPHSQSLFHSPEREVLERDLVLPLLCKDYCKEFFYTCRGHIPGFLQTTADEFCFYYARKDGGLCFPDFPRKQVRGPASNYLDQMEEYDKVEEISRKHKHNCFCIQEVVSGLRQPVGALHSGDGSQRLFILEKEGYVKILTPEGEIFKEPYLDIHKLVQSGIKGGDERGLLSLAFHPNYKKNGKLYVSYTTNQERWAIGPHDHILRVVEYTVSRKNPHQVDLRTARVFLEVAELHRKHLGGQLLFGPDGFLYIILGDGMITLDDMEEMDGLSDFTGSVLRLDVDTDMCNVPYSIPRSNPHFNSTNQPPEVFAHGLHDPGRCAVDRHPTDININLTILCSDSNGKNRSSARILQIIKGKDYESEPSLLEFKPFSNGPLVGGFVYRGCQSERLYGSYVFGDRNGNFLTLQQSPVTKQWQEKPLCLGTSGSCRGYFSGHILGFGEDELGEVYILSSSKSMTQTHNGKLYKIVDPKRPLMPEECRATVQPAQTLTSECSRLCRNGYCTPTGKCCCSPGWEGDFCRTAKCEPACRHGGVCVRPNKCLCKKGYLGPQCEQVDRNIRRVTRAGILDQIIDMTSYLLDLTSYIV

Variants of: B1
Settings: with shh_mouse Shh

Row | Variant | effect of a mutation on the interaction
1 | D383A | disrupting interaction strength
2 | D383R | disrupting interaction strength
